Results on eight substances are retold here after patent US12295987B2, “Method of using a GIP/GLP1 co-agonist for diabetes” (Eli Lilly and Company, priority 2018, dated 2025).

Numbered stars: 1 amine (or outer) side, 2 acyl side, 3 side chain; on linkers, the order of the positions; unused ones are H or OH. Square brackets hold non-standard residues; d marks the D form. Side chains are listed from the residue outwards. Ends that are not written are not given here. * marks the point of attachment. C18 diacid = O=C(O)CCCCCCCCCCCCCCCCC(=O)*; αMePhe(2-F) = C[C@](N)(Cc1ccccc1F)C(=O)O; γGlu = O=C(O)[C@H](CCC(=O)[*:2])N[*:1]; αMeL = CC(C)C[C@](C)(N)C(=O)O; AEEA = NCCOCCOCC(=O)O; Aib = CC(C)(N)C(=O)O

This experiment deals with T1, human gastric inhibitory peptide receptor (hGIPR) (Homo sapiens, UniProt P48546).
T1 construct: expressed in transfected cells; host or cells: HEK293
T1 sequence (P48546 22-466): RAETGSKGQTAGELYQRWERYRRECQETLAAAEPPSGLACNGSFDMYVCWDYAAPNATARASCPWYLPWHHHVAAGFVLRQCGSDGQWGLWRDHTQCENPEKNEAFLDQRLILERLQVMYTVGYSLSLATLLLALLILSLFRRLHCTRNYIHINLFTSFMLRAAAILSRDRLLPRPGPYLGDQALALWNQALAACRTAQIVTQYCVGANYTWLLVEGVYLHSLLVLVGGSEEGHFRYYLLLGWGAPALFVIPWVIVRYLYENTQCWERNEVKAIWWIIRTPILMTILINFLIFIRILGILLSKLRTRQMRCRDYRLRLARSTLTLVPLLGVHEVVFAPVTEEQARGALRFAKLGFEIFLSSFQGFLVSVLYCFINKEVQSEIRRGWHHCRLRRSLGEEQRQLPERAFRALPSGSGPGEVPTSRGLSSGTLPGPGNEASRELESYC
Briefly: cAMP pharmacological functional assay in presence of 0.1% casein, hGIPR. In kind it is cell-based. To be noted: ratio of hGIPR to hGLP1R cAMP EC50 ratios. As for the experimental part: Each receptor over-expressing cell line (20 μl) is treated with the test peptide in DMEM (Gibco Cat #31053) supplemented with 0.1% Casein (Sigma Cat #C4765), 250 μM IBMX, 1× GlutaMAX™ (Gibco Cat #35050), and 20 mM HEPES (HyClone Cat #SH30237.01) in a 20 μl assay volume. […] EC50 is the concentration of compound causing half-maximal simulation in a dose response curve. A relative EC50 value is derived by non-linear regression analysis using the percent maximal response vs. the concentration of peptide added, fitted to a four-parameter logistic equation.
Intracellular cAMP levels are determined by extrapolation using a standard curve. Dose response curves of compounds are plotted as the percentage of stimulation normalized to minimum (buffer only) and maximum (maximum concentration of each control ligand) values and analyzed using a four parameter non-linear regression fit with a variable slope (Genedata Screener 13). EC50 is the concentration of compound causing half-maximal simulation in a dose response curve.
EC50 is the concentration of compound causing half-maximal simulation in a dose response curve.

On to “Y-Aib-EGT-αMeF(2F)-TSD-4Pal-SI-αMeL-LDKK((2-[2-(2-Amino-ethoxy)-ethoxy]-acetyl)-(γGlu)-(2-[2-(2-Amino-ethoxy)-ethoxy]-acetyl)-CO—(CH2)18—CO2H)AQ-Aib-EFI-(D-Glu)-YLIEGGPSSGAPPPS-NH2 (YXEGTXTSDXSIXLDKKAQXEFIXYLIEGGPSSGAPPPS; Aib, αMeF(2F), 4Pal, αMeL, D-Glu; lipidated K; amide; (2)..(2) Xaa at position 2 is Aib; (6)..(6) Xaa at position 6 is alpha-methyl-Phe(2F); (10)..(10) Xaa at position 10 is 4Pal; (13)..(13) Xaa at position 13 is alpha-methyl-Leu; MOD_RES (17)..(17) Lys at position 17 is chemically modified by conjugation of the epsilon-amino group of the Lys side chain with (2-[2-(2-Amino-ethoxy)-ethoxy]-acetyl)-(gamma-Glu)-(2-[2-(2-Amino- ethoxy)-ethoxy]-acetyl)-CO) [Peptide 202]”, for which the “[hGIPR/hGLP1R] EC50 Ratio” value is reported as 6.73.
To “Y-Aib-EGT-αMeF(2F)-TSD-cTA-SI-αMeL-LDEK((2-[2-(2-Amino-ethoxy)-ethoxy]-acetyl)2-(γGlu)-CO—(CH2)18—CO2H)AQ-Aib-EFIEYLIEGGPSSGAPPPS-NH2 (YXEGTXTSDXSIXLDEKAQXEFIEYLIEGGPSSGAPPPS; Aib, cTA, αMeF(2F), αMeL; acylated lysine C20 diacid; amide; (2)..(2) Xaa at position 2 is Aib; (6)..(6) Xaa at position 6 is alpha-methyl-Phe(2F); (10)..(10) Xaa at position 10 is cTA; (13)..(13) Xaa at position 13 is alpha-methyl-Leu; MOD_RES (17)..(17) Lys at position 17 is chemically modified by conjugation of the epsilon-amino group of the Lys side chain with (2-[2-(2-amino-ethoxy)-ethoxy]-acetyl)2-(gamma-Glu)-CO-(CH2)18- CO2H; (20)..(20) Xaa at positi) [Peptide 155]” belongs 5.97; to “Y-Aib-EGT-αMeF(2F)-TSDASI-αMeL-LD-Orn-K((2-[2-(2-Amino-ethoxy)-ethoxy]-acetyl)2-(γGlu)-CO—(CH2)16—CO2H)AQ-Aib-AFI-(D-Glu)-αMeY-LIEGGPSSGAPPPS-NH2 (YXEGTXTSDASIXLDXKAQXAFIXXLIEGGPSSGAPPPS; Aib, Orn, αMe residues, lipidated Lys, D-Glu, amide; (2)..(2) Xaa at position 2 is Aib; (6)..(6) Xaa at position 6 is alpha-methyl-Phe(2F); (13)..(13) Xaa at position 13 is alpha-methyl-Leu; (16)..(16) Xaa at position 16 is Orn; MOD_RES (17)..(17) Lys at position 17 is chemically modified by conjugation of the epsilon-amino group of the Lys side chain with (2-[2-(2-amino-ethoxy)-ethoxy]-acetyl)2-(gamma-Glu)-CO-(CH2)16- CO2H; (20)..(20) Xaa at positi) [Peptide 246]”, 2.48.
To “Y-Aib-EGT-αMeF(2F)-TSDHSI-αMeL-LD-Dab-K((2-[2-(2-Amino-ethoxy)-ethoxy]-acetyl)2-(γGlu)-CO—(CH2)18—CO2H)AQ-Aib-TFI-(D-Glu)-YLIEGGPSSGAPPPS-NH2 (YXEGTXTSDHSIXLDXKAQXTFIXYLIEGGPSSGAPPPS; Aib, αMeF(2F), αMeL, Dab, D-Glu; lipidated K; amide; (2)..(2) Xaa at position 2 is Aib; (6)..(6) Xaa at position 6 is alpha-methyl-Phe(2F); (13)..(13) Xaa at position 13 is alpha-methyl-Leu; (16)..(16) Xaa at position 16 is Dab; MOD_RES (17)..(17) Lys at position 17 is chemically modified by conjugation of the epsilon-amino group of the Lys side chain with (2-[2-(2-amino-ethoxy)-ethoxy]-acetyl)2-(gamma-Glu)-CO-(CH2)18- CO2H; (20)..(20) Xaa at positi) [Peptide 172]” belongs 2.63.
To “Y-Aib-EGT-αMeF(2F)-TSDHSI-αMeL-LD-Dap-K((2-[2-(2-Amino-ethoxy)-ethoxy]-acetyl)2-(γGlu)-CO—(CH2)18—CO2H)AQ-Aib-TFI-(D-Glu)-YLIEGGPSSGAPPPS-NH2 (YXEGTXTSDHSIXLDXKAQXTFIXYLIEGGPSSGAPPPS; Aib, αMeF(2F), αMeL, Dap, D-Glu; lipidated K; amide; (2)..(2) Xaa at position 2 is Aib; (6)..(6) Xaa at position 6 is alpha-methyl-Phe(2F); (13)..(13) Xaa at position 13 is alpha-methyl-Leu; (16)..(16) Xaa at position 16 is Dap; MOD_RES (17)..(17) Lys at position 17 is chemically modified by conjugation of the epsilon-amino group of the Lys side chain with (2-[2-(2-amino-ethoxy)-ethoxy]-acetyl)2-(gamma-Glu)-CO-(CH2)18- CO2H; (20)..(20) Xaa at positi) [Peptide 173]” belongs 4.80; to “Y-Aib-EGT-αMeF(2F)-TSDHSI-αMeL-LD-Orn-K((2-[2-(2-Amino-ethoxy)-ethoxy]-acetyl)2-(γGlu)-CO—(CH2)18—CO2H)AQ-Aib-TFI-(D-Glu)-YLIEGGPSSGAPPPS-NH2 (YXEGTXTSDHSIXLDXKAQXTFIXYLIEGGPSSGAPPPS; Aib, αMeF(2F), αMeL, Orn, D-Glu; lipidated K; amide; (2)..(2) Xaa at position 2 is Aib; (6)..(6) Xaa at position 6 is alpha-methyl-Phe(2F); (13)..(13) Xaa at position 13 is alpha-methyl-Leu; (16)..(16) Xaa at position 16 is Orn; MOD_RES (17)..(17) Lys at position 17 is chemically modified by conjugation of the epsilon-amino group of the Lys side chain with (2-[2-(2-amino-ethoxy)-ethoxy]-acetyl)2-(gamma-Glu)-CO-(CH2)18- CO2H; (20)..(20) Xaa at positi) [Peptide 171]”, 7.73; to “Y-Aib-EGT-αMeF(2F)-TSDHSI-αMeL-LDEK((2-[2-(2-Amino-ethoxy)-ethoxy]-acetyl)2-(γGlu)-CO—(CH2)14—CO2H)AQ-Aib-HFI-(D-Glu)-YLIEGGPSSGAPPPS-NH2 (YXEGTXTSDHSIXLDEKAQXHFIXYLIEGGPSSGAPPPS; Aib, αMeF(2F), αMeL, D-Glu; C16 diacid lipidated K; amide; (2)..(2) Xaa at position 2 is Aib; (6)..(6) Xaa at position 6 is alpha-methyl-Phe(2F); (13)..(13) Xaa at position 13 is alpha-methyl-Leu; MOD_RES (17)..(17) Lys at position 17 is chemically modified by conjugation of the epsilon-amino group of the Lys side chain with (2-[2-(2-amino-ethoxy)-ethoxy]-acetyl)2-(gamma-Glu)-CO-(CH2)14- CO2H; (20)..(20) Xaa at position 20 is Aib; (24)..(24) Xaa at positi) [Peptide 178]”, 9.77.
Turning to “Y-Aib-EGT-αMeF(2F)-TSDHSI-αMeL-LDEK((2-[2-(2-Amino-ethoxy)-ethoxy]-acetyl)2-(γGlu)-CO—(CH2)16—CO2H)AQ-Aib-HFI-(D-Glu)-YLIEGG-NH2 (Y[Aib]EGT[αMePhe(2-F)]TSDHSI[αMeL]LDEK([AEEA-AEEA-γGlu-C18 diacid])AQ[Aib]HFI[dE]YLIEGG-NH2; N-terminus assumed; SMILES CC[C@H](C)[C@H](NC(=O)[C@H](CC(C)C)NC(=O)[C@H](Cc1ccc(O)cc1)NC(=O)[C@@H](CCC(=O)O)NC(=O)[C@@H](NC(=O)[C@H](Cc1ccccc1)NC(=O)[C@H](Cc1c[nH]cn1)NC(=O)C(C)(C)NC(=O)[C@H](CCC(N)=O)NC(=O)[C@H](C)NC(=O)[C@H](CCCCNC(=O)COCCOCCNC(=O)COCCOCCNC(=O)CC[C@H](NC(=O)CCCCCCCCCCCCCCCCC(=O)O)C(=O)O)NC(=O)[C@H](CCC(=O)O)NC(=O)[C@H](CC(=O)O)NC(=O)[C@H](CC(C)C)NC(=O)[C@](C)(CC(C)C)NC(=O)[C@@H](NC(=O)[C@H](CO)NC(=O)[C@H](Cc1c[nH]cn1)NC(=O)[C@H](CC(=O)O)NC(=O)[C@H](CO)NC(=O)[C@@H](NC(=O)[C@](C)(Cc1ccccc1F)NC(=O)[C@@H](NC(=O)CNC(=O)[C@H](CCC(=O)O)NC(=O)C(C)(C)NC(=O)[C@@H](N)Cc1ccc(O)cc1)[C@@H](C)O)[C@@H](C)O)[C@@H](C)CC)[C@@H](C)CC)C(=O)N[C@@H](CCC(=O)O)C(=O)NCC(=O)NCC(N)=O) [Peptide 180]”, the “[hGIPR/hGLP1R] EC50 Ratio” value is recorded as 6.27.
